Assay [1] concerns the target human ZNRF3(ECD) on Freestyle 293F cells (human). As to the kind of experiment: FACS on a mix of DiD-labelled ZNRF3 over-expressing and unlabelled parental 293F Freestyle cells, secondary reagents (anti-M13 and Strep-PE) only; Q3 0,120% [continued].
In assay [2] the target is T1, full length human LGR5-FLAG-HA on Freestyle 293F or CHO-K1 cells (human, UniProt O75473 22-907).
T1 construct: also called hLGR5; hLGR5(FL)
T1 sequence: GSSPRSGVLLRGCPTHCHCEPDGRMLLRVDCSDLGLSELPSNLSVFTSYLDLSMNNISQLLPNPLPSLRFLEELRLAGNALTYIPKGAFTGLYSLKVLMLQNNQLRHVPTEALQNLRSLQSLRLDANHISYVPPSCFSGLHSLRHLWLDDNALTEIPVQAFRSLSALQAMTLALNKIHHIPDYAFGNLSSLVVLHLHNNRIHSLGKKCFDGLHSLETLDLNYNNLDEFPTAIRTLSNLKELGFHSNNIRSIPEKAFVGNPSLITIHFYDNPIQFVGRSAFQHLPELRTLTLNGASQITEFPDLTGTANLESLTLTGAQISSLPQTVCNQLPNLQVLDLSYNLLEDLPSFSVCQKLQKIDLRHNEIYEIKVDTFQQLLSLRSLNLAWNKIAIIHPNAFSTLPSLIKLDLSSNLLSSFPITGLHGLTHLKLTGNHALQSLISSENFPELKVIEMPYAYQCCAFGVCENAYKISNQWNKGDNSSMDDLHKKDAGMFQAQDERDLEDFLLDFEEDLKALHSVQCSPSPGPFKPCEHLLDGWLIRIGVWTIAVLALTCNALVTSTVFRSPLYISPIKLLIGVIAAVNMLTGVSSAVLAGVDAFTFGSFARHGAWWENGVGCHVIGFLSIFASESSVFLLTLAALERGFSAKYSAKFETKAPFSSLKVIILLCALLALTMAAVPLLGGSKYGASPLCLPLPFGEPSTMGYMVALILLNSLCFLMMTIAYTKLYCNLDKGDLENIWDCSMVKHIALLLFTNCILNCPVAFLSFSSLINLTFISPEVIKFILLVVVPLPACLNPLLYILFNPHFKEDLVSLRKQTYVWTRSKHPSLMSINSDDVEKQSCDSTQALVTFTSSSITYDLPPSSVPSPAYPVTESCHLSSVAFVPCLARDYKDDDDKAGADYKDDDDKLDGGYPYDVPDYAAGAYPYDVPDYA
In words: competition FACS on CHO-K1 cells over-expressing human LGR5; competitor PG7711p02 (OMP88R20 copy) fixed at 50 ng/ml, detected with anti-human IgG PE; MFI normalised to no R-spondin1.
Experimental: The binding of the copied version of OMP88R20 to this cell line was then tested in a dilution series of antibody and the EC50 for binding was determined.
The bispecifics were first tested for binding to the CHO cell clone expressing LGR5 in a concentration range to determine the EC50 for binding in FACS.

The target in assay [3] is T2, recombinant human LGR5-Fc (human, UniProt O75473 22-561).
T2 construct: extracellular domain; also called rhLGR5-Fc (RND systems Cat. Nr. 8078-GP); not shown: Fc part of the bought fusion protein
T2 sequence (looked up): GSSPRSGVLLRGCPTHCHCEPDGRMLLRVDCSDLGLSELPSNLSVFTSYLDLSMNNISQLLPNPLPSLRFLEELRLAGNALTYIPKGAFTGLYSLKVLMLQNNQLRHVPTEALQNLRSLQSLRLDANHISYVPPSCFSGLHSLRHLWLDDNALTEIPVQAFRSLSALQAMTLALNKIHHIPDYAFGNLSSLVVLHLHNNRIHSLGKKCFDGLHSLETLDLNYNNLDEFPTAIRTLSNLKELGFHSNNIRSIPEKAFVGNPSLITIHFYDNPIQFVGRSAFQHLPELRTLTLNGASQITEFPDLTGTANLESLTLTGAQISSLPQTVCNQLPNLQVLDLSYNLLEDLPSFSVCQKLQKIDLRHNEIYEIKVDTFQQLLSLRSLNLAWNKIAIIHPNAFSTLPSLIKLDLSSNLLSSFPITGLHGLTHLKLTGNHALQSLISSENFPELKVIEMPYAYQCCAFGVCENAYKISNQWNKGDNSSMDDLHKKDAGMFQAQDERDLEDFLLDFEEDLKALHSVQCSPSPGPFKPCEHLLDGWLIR
In words: R-Spondin3 blocking ELISA: 0,031 µg/ml rhLGR5-Fc on 2 µg/ml coated rhR-Spondin3, competitor 15 µg/ml soluble R-Spondin3, detection anti-Fc, OD450 normalised to maximum binding.

Sequence of human ZNRF3(ECD) on Freestyle 293F cells (human) (chain, as listed by the source): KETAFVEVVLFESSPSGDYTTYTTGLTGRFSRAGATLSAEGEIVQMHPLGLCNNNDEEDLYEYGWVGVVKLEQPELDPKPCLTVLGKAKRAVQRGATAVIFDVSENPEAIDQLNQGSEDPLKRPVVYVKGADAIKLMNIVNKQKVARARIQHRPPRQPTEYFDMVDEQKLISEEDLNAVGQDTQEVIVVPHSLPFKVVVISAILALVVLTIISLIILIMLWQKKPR

For -Control, in assay [1], the % of events in Q2 (DiD-positive and PE-positive) is 0.18%.

B1: R-spondin1 (ligand, UniProt Q2MKA7 21-263, looked up)
chain: SRGIKGKRQRRISAEGSQACAKGCELCSEVNGCLKCSPKLFILLERNDIRQVGVCLPSCPPGYFDARNPDMNKCIKCKIEHCEACFSHNFCTKCKEGLYLHKGRCYPACPEGSSAANGTMECSSPAQCEMSEWSPWGPCSKKQQLCGFRRGSEERTRRVLHAPVGDHAACSDTKETRRCTVRRVPCPEGQKRRKGGQGRRENANRNLARKESKEAGAGSRRRKGQQQQQQQGTVGPLTSAGPA
notes: also called RSPO1; R-spondin1 (R&D Systems, cat. nr. 4645-RF/CF)
As for B1, the “IC50 (read off the curve)” value in assay [2] is roughly 0.01 µM.

B2: recombinant human R-Spondin3 (ligand, UniProt Q9BXY4 22-272, looked up)
chain: QNASRGRRQRRMHPNVSQGCQGGCATCSDYNGCLSCKPRLFFALERIGMKQIGVCLSSCPSGYYGTRYPDINKCTKCKADCDTCFNKNFCTKCKSGFYLHLGKCLDNCPEGLEANNHTMECVSIVHCEVSEWNPWSPCTKKGKTCGFKRGTETRVREIIQHPSAKGNLCPPTNETRKCTVQRKKCQKGERGKKGRERKRKKPNKGESKEAIPDSKSLESSKEIPEQRENKQQQKKRKVQDKQKSVSVSTVH
notes: also called rhR-Spondin3; R-Spondin3 (RND systems)
With B2, the binding result in assay [3] is listed as “binds”.

For the origin of these results see patent US20240343824A1 (MERUS N V, published 2024).
